Data on 1 protein can be found in paper PMC5110560, “A Wheat Cinnamyl Alcohol Dehydrogenase TaCAD12 Contributes to Host Resistance to the Sharp Eyespot Disease” (Frontiers in Plant Science, 2016).

Substrate in series [1]: COc1cc(/C=C/C=O)cc(OC)c1O
Put plainly: purified protein. Type of series: biochemical, Triticum aestivum. To be noted: NADPH as co-substrate; GST fusion.

Substrate in series [2]: COc1cc(/C=C/C=O)ccc1O
In words: purified protein. Type of series: biochemical, Triticum aestivum. To be noted: NADPH as co-substrate; GST fusion.

B1: TaCAD12 (GST-TaCAD12) (Triticum aestivum) (protein)
chain: MAPTATAAEQSQQHTKKAVGLAALDASGHLSPLAITRRSTGDDDVVIKILYCGICHSDLHSIKNDWKNAKYPMIPGHEIAGEVTEVGKNVTKFKAGDRVGVGCMVNSCQSCESCDKGFENHCPGMIFTYNSVDRDGTRTHGGYSSMVVVHERFVVRFPDAMPLDKGAPLLCAGITVYSPMKYHGLNAPGMHLGVLGLGGLGHVAVKFGKAFGMKVTVISSSPGKKQEALERLGADAFVVSKDADEMKATMSTMDGIINTVSANVPMAPLFGLLKPNGKMIMVGLPEKPIEVPPFALVARNKTLAGSCIGGMRDTQEMLDLAAKHGVTADIEVIGAEYVNTAMERLAKADVRYRFVIDIANTLDKAAAATTE
notes: N-terminal GST fusion (pGEX-4T-1), expressed in E. coli BL21, purified; tag kept
The term Km denotes the substrate concentration at which the rate is half of its maximum. As for B1, the Km came to 34.18 ± 5.56 µM in “purified protein [1]” and 28.91 ± 3.67 µM in “purified protein [2]”.
